Laboratory results taken from article PMC12038025.

Key:
O35161 = assay: SEC-MALS
[1] = target: CELSR1 extracellular region, CADH1 through GAIN domains (residues 255-2477) (mouse) (UniProt O35161); assay: SEC-MALS

CELSR1 extracellular region, CADH1 through GAIN domains (residues 255-2477)
percent dimer in the main peak (O35161): roughly 60% dimer

CELSR1 extracellular region, CADH1 through GAIN domains (residues 255-2477), O35161 255-2477
stoichiometry N [1]: 2
